{"source": "paper PMC6591005", "molecular_target": "GII.4.2002 P domain (human norovirus GII.4 2002 (Farmington Hills))", "assay": "crystal structure", "data": [{"substance": "GII.4.2002 P domain (domain or fragment)", "values": [{"measurement": "stoichiometry N", "value": 2}]}]}
